Data published in the supplement of paper PMC9233669.
This sample holds only a part of the variants without activity.

Assays:
biotinyl-Phe-oxazolone = experiment: self-aminoacylation, catalytic enhancement (BFO) (fold over background); higher = more active; k-Seq, kA / k0A0; sequences stand for … in GGGAAUGGAUCCACAUCUACGAAUUC…UUCACUGCAGACUUGACGAAGCUG
Procedure, shortened: (§1)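 The uncatalyzed rate is the low-activity peak of a bimodal Gaussian fit, and catalytic enhancement is median kA divided by it. The kA values came from pseudo-first-order fits, with 1000 bootstraps, of per-sequence fraction reacted measured by streptavidin capture, triplicate qPCR and Illumina sequencing. Mutagenized RNA pools with a 21-nt variable region (0.43 μM) were reacted with each biotinyl-aminoacyl-oxazolone at 2–1250 μM in 50 μL HEPES/NaCl/KCl/MgCl2/CaCl2 buffer with 5% acetonitrile, pH 6.9–7.0, for 90 minutes at room temperature.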

biotinyl-Ile-oxazolone = experiment: self-aminoacylation, catalytic enhancement (BIO) (fold over background); higher = more active; k-Seq, kA / k0A0; sequences stand for … in GGGAAUGGAUCCACAUCUACGAAUUC…UUCACUGCAGACUUGACGAAGCUG
Procedure, shortened: as §1

biotinyl-Met-oxazolone = experiment: self-aminoacylation, catalytic enhancement (BMO) (fold over background); higher = more active; k-Seq, kA / k0A0; sequences stand for … in GGGAAUGGAUCCACAUCUACGAAUUC…UUCACUGCAGACUUGACGAAGCUG
Procedure, shortened: as §1

biotinyl-Val-oxazolone = experiment: self-aminoacylation, catalytic enhancement (BVO) (fold over background); higher = more active; k-Seq, kA / k0A0; sequences stand for … in GGGAAUGGAUCCACAUCUACGAAUUC…UUCACUGCAGACUUGACGAAGCUG
Procedure, shortened: as §1

biotinyl-Leu-oxazolone = experiment: self-aminoacylation, catalytic enhancement (BLO) (fold over background); higher = more active; k-Seq, kA / k0A0; sequences stand for … in GGGAAUGGAUCCACAUCUACGAAUUC…UUCACUGCAGACUUGACGAAGCUG
Procedure, shortened: as §1

biotinyl-Trp-oxazolone = experiment: self-aminoacylation, catalytic enhancement (BWO) (fold over background); higher = more active; k-Seq, kA / k0A0; sequences stand for … in GGGAAUGGAUCCACAUCUACGAAUUC…UUCACUGCAGACUUGACGAAGCUG
Procedure, shortened: as §1

Row | Sequence | self-aminoacylation (biotinyl-Phe-oxazolone) | self-aminoacylation (biotinyl-Ile-oxazolone) | self-aminoacylation (biotinyl-Met-oxazolone) | self-aminoacylation (biotinyl-Val-oxazolone) | self-aminoacylation (biotinyl-Leu-oxazolone) | self-aminoacylation (biotinyl-Trp-oxazolone)
1 | CUACUUCACACAACCGGUCUG [Fam1A.1 aminoacylation ribozyme variant] | 1.07 | 0.858 | 1.2 | 1.01 | 0.892 | 0.778
2 | CUACUUCACACAAUCGAUCUG [Fam1A.1 aminoacylation ribozyme variant] | 0.726 | 0.888 | 0.686 | 0.677 | 0.784 | 0.691
3 | CUACUUCACAGAAUCGGUCUG [Fam1A.1 aminoacylation ribozyme variant] | 1.11 | 1.03 | 1.05 | 1.02 | 1.1 | 0.917
4 | CUACUUCAGACAAUCCGUCUG [Fam1A.1 aminoacylation ribozyme variant] | 1.86 | 0.902 | 0.675 | 0.826 | 0.963 | 1.23
5 | CUACUUCAGACAAUCGGUCCG [Fam1A.1 aminoacylation ribozyme variant] | 0.81 | 0.811 | 1 | 0.695 | 1.01 | 1.38
6 | CUACUUCAGACAAUCGGUCUU [Fam1A.1 aminoacylation ribozyme variant] | 1.11 | 0.967 | 0.904 | 0.961 | 0.919 | 0.663
7 | CUACUUCAGACGAUCGGUCUG [Fam1A.1 aminoacylation ribozyme variant] | 0.484 | 0.727 | 1.24 | 1.01 | 0.954 | 0.788
8 | CUACUUCAUACAACCGGUCUG [Fam1A.1 aminoacylation ribozyme variant] | 0.504 | 0.925 | 0.621 | 0.84 | 0.751 | 0.415
9 | CUACUUCCAACAAUCGGGCUG [Fam1A.1 aminoacylation ribozyme variant] | 0.889 | 1.59 | 2.11 | 1.27 | 1.28 | 0.982
10 | CUACUUCCAACAAUGGGUCUG [Fam1A.1 aminoacylation ribozyme variant] | 0.635 | 0.951 | 0.932 | 0.835 | 0.795 | 0.789
11 | CUACUUCCAACAAUUGGUCUG [Fam1A.1 aminoacylation ribozyme variant] | 0.55 | 0.817 | 0.718 | 0.839 | 0.776 | 0.536
12 | CUACUUCCACCAAUCGGUCUG [Fam1A.1 aminoacylation ribozyme variant] | 0.84 | 0.912 | 0.684 | 0.877 | 0.793 | 0.387
13 | CUACUUCCUACAAUCGGUCUG [Fam1A.1 aminoacylation ribozyme variant] | 0.51 | 0.76 | 0.835 | 0.801 | 0.671 | 0.511
14 | CUACUUCGAACAAUAGGUCUG [Fam1A.1 aminoacylation ribozyme variant] | 0.503 | 0.547 | 0.471 | 0.745 | 0.461 | 0.421
15 | CUACUUCGACCAAUCGGUCUG [Fam1A.1 aminoacylation ribozyme variant] | 0.674 | 0.854 | 0.856 | 0.908 | 0.979 | 0.379
16 | CUACUUCGGACAAUCGGUCUG [Fam1A.1 aminoacylation ribozyme variant] | 0.631 | 0.815 | 0.928 | 0.923 | 0.867 | 0.75
17 | CUACUUCUAACAAUCGCUCUG [Fam1A.1 aminoacylation ribozyme variant] | 0.385 | 0.612 | 0.553 | 0.559 | 0.602 | 0.498
18 | CUACUUCUAACAAUCGGUCCG [Fam1A.1 aminoacylation ribozyme variant] | 0.505 | 0.708 | 0.765 | 0.621 | 0.799 | 0.63
19 | CUACUUCUAACAGUCGGUCUG [Fam1A.1 aminoacylation ribozyme variant] | 0.402 | 0.521 | 0.672 | 0.597 | 0.611 | 0.349
20 | CUACUUGAAACAAUCGGACUG [Fam1A.1 aminoacylation ribozyme variant] | 0.551 | 0.922 | 0.782 | 0.786 | 0.944 | 0.651
21 | CUACUUGAAACAAUCGGCCUG [Fam1A.1 aminoacylation ribozyme variant] | 0.788 | 1.84 | 1.96 | 1.68 | 1.45 | 1.38
22 | CUACUUGAAACAAUCGGUCUC [Fam1A.1 aminoacylation ribozyme variant] | 0.658 | 0.789 | 0.827 | 0.688 | 0.657 | 0.561
23 | CUACUUGAAACAAUCGGUUUG [Fam1A.1 aminoacylation ribozyme variant] | 0.458 | 0.907 | 0.938 | 0.77 | 0.89 | 0.944
24 | CUACUUGAAACUAUCGGUCUG [Fam1A.1 aminoacylation ribozyme variant] | 0.599 | 1.03 | 0.986 | 0.975 | 0.941 | 0.685
25 | CUACUUGAAAGAAUCGGUCUG [Fam1A.1 aminoacylation ribozyme variant] | 0.599 | 0.869 | 0.974 | 0.771 | 0.693 | 0.731
26 | CUACUUGAGACAAUCGGUCUG [Fam1A.1 aminoacylation ribozyme variant] | 0.89 | 0.884 | 0.94 | 1.01 | 0.962 | 1.1

Row | Sequence | self-aminoacylation (biotinyl-Phe-oxazolone) | self-aminoacylation (biotinyl-Ile-oxazolone) | self-aminoacylation (biotinyl-Met-oxazolone) | self-aminoacylation (biotinyl-Val-oxazolone) | self-aminoacylation (biotinyl-Leu-oxazolone) | self-aminoacylation (biotinyl-Trp-oxazolone)
27 | CUACUUGUAACAAUCGGUCUG [Fam1A.1 aminoacylation ribozyme variant] | 0.824 | 0.651 | 0.806 | 0.658 | 0.678 | 0.573
28 | CUACUUUAAACAAUCGGGCUG [Fam1A.1 aminoacylation ribozyme variant] | 0.648 | 1.2 | 1.25 | 1.06 | 1.07 | 0.746
29 | CUACUUUAAACAAUCGGUCGG [Fam1A.1 aminoacylation ribozyme variant] | 0.521 | 0.945 | 1.08 | 0.911 | 0.963 | 0.769
30 | CUACUUUAAACAAUCGGUGUG [Fam1A.1 aminoacylation ribozyme variant] | 0.998 | 0.722 | 0.925 | 0.737 | 0.855 | 0.673
31 | CUACUUUAAACAAUCGGUUUG [Fam1A.1 aminoacylation ribozyme variant] | 0.922 | 0.824 | 0.786 | 0.8 | 0.776 | 0.724
32 | CUACUUUAAACGAUCGGUCUG [Fam1A.1 aminoacylation ribozyme variant] | 0.589 | 0.808 | 0.885 | 0.844 | 0.863 | 0.759
33 | CUACUUUAACCAAUCGGUCUG [Fam1A.1 aminoacylation ribozyme variant] | 1.22 | 0.883 | 0.779 | 0.842 | 0.662 | 0.949
34 | CUACUUUAAGCAAUCGGUCUG [Fam1A.1 aminoacylation ribozyme variant] | 0.5 | 0.721 | 0.749 | 0.685 | 0.69 | 0.51
35 | CUACUUUAAUCAAUCGGUCUG [Fam1A.1 aminoacylation ribozyme variant] | 1.43 | 0.955 | 0.892 | 0.915 | 0.78 | 0.755
36 | CUAGUUCAAAAAAUCGGUCUG [Fam1A.1 aminoacylation ribozyme variant] | 2.72 | 0.934 | 0.842 | 0.752 | 0.838 | 2.08
37 | CUAGUUCUAACAAUCGGUCUG [Fam1A.1 aminoacylation ribozyme variant] | 0.672 | 0.831 | 0.762 | 0.762 | 0.849 | 0.588
38 | CUAUUUCAAACAAUCGGUCUC [Fam1A.1 aminoacylation ribozyme variant] | 7.11 | 0.818 | 0.775 | 0.835 | 0.785 | 3.67
39 | CUAUUUCAAACAUUCGGUCUG [Fam1A.1 aminoacylation ribozyme variant] | 0.835 | 1.18 | 1.3 | 1.3 | 1.16 | 1.16
40 | CUCCACCUAGGUCAUCGGGUG [Fam2.2 aminoacylation ribozyme variant] | 36.3 | 3.95 | 5.98 | 5.19 | 5.74 | 7.04
41 | CUCCUUCAAACAAUCGCUCUG [Fam1A.1 aminoacylation ribozyme variant] | 2.77 | 0.73 | 0.531 | 0.666 | 0.78 | 2.01
42 | CUCCUUCAAACAAUGGGUCUG [Fam1A.1 aminoacylation ribozyme variant] | 0.816 | 0.855 | 0.901 | 0.982 | 1.05 | 0.877
43 | CUCCUUCAAACCAUCGGUCUG [Fam1A.1 aminoacylation ribozyme variant] | 1.69 | 0.815 | 0.805 | 0.977 | 0.781 | 0.905
44 | CUCCUUCAACCAAUCGGUCUG [Fam1A.1 aminoacylation ribozyme variant] | 29.5 | 1.11 | 1.1 | 1.16 | 1.33 | 19.8
45 | CUCCUUCAAGCAAUCGGUCUG [Fam1A.1 aminoacylation ribozyme variant] | 14.1 | 1.09 | 1.2 | 1.09 | 1.58 | 10.2
46 | CUGACCCUGGUCAUCGAGUGA [Fam2.1 aminoacylation ribozyme variant] | 7.35 | 3.64 | 7.22 | 4.5 | 7.94 | 8.61
47 | CUGCUGCAAACAAUCGGUCUG [Fam1A.1 aminoacylation ribozyme variant] | 1.81 | 1.05 | 0.995 | 1.07 | 1.31 | 1.53
48 | CUGCUUCAAACAAUCAGUCUG [Fam1A.1 aminoacylation ribozyme variant] | 40.5 | 0.738 | 0.723 | 0.77 | 1.21 | 12.5
49 | CUGCUUCAAACAAUCGGCCUG [Fam1A.1 aminoacylation ribozyme variant] | 449 | 3.07 | 3.69 | 3.35 | 6.94 | 162
50 | CUGCUUCAAACAAUCGGUCUG [Fam1A.1 aminoacylation ribozyme variant] | 125 | 1.29 | 1.72 | 1.35 | 2.83 | 53.5
51 | CUGCUUCAAACAUUCGGUCUG [Fam1A.1 aminoacylation ribozyme variant] | 1.11 | 1.29 | 1.12 | 1.62 | 1.25 | 0.813
